Laboratory results as given in paper PMC2789664.
Where two headings read alike, the source gives them in different places.

Legend:
[1] = target: T1, GAPDH wild type (Homo sapiens, UniProt P04406 1-335); assay: EMSA
[2] = target: T1, GAPDH wild type; assay: competition EMSA
[3] = target: T1, GAPDH wild type; assay: competition EMSA; remark: listed apart in the source
[4] = target: T1, GAPDH wild type; assay: competition EMSA; remark: listed apart in the source

T1 sequence (P04406 whole entry): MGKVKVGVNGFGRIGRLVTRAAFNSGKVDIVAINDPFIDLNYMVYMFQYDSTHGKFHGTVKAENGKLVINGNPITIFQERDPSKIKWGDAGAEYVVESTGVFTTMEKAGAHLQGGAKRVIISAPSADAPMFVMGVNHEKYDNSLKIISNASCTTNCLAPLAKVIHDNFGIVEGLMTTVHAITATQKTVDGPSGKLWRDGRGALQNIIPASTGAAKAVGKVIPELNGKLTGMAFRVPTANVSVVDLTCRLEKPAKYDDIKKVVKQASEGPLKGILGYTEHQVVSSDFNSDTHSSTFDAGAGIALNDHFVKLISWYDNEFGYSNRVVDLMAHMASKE

Question: AGGGTTAGGGTTAGGGTT (ssDNA) [ss-(AGGGTT)3] was tested. Which Kd [1] did it give?
Answer: 45 ± 5 nM

Question: Does AGATGTAGCAATAGTAGT (ssDNA) [control 18-mer] bind [2]?
Answer: no binding

Question: Does TTAGCGTTAGCGTTAGCG (ssDNA) [ss-(TTAGCG)3] bind [3]?
Answer: no binding

Question: Does ATAGGGATAGGGATAGGG (ssDNA) [ss-(ATAGGG)3] bind [3]?
Answer: no binding

Question: Does TTTGGGTTTGGGTTTGGG (ssDNA) [ss-(TTTGGG)3] bind [4]?
Answer: binds

Question: Does TTAGGCTTAGGCTTAGGC (ssDNA) [ss-(TTAGGC)3] bind [3]?
Answer: no binding

Question: For TTAGGGTTAGGGTTAGGG (ssDNA) [ss-(TTAGGG)3], which Kd [1] is on record?
Answer: 70 ± 5 nM
